Values of other authors, collected in PMC7825312.

Molecular target: Cys38 (UniProt position 39, SFLKECPSGRI)
Assay: UV-vis

In the case of Recoverin (Bos taurus), the pKa is given as 7.6.
